Data reported in PMC11880193 (Nature Communications, 2025).

Target: the molecule itself
Test: SEC

Protein | stoichiometry N | binding result
CODANIN-1 F581E/E652A (LOBE2 dimer interface mutant) (natural protein) MAAVLESLLREEVSVAAVVRWIARSTQGSEDNAGEAAALSSLRALRKEFVPFLLNFLREQSSRVLPQGPPTPAKTPGASAALPGRPGGPPRGSRGARSQLFPPTEAQSTAAEAPLARRGGRRRGPGPARERGGRGLEEGVSGESLPGAGGRRLRGSGSPSRPSLTLSDPPNLSNLEEFPPVGSVPPGPTGTKPSRRINPTPVSEERSLSKPKTCFTSPPISCVPSSQPSALDTSPWGLGLPPGCRSLQEEREMLRKERSKQLQQSPTPTCPTPELGSPLPSRTGSLTDEPADPARVSSRQRLELVALVYSSCIAENLVPNLFLELFFVFQLLTARRMVTAKDSDPELSPAVLDSLESPLFQSIHDCVFFAVQVLECHFQVLSNLDKGTLKLLAENERLLCFSPALQGRLRAAYEGSVAKVSLVMPPSTQAVSFQPETDNRANFSSDRAFHTFKKQRDVFYEVLREWEDHHEEPGWDFEKGLGSRIRAMMGQLSAACSHSHFVRLFQKQLLQMCQSPGGAGGTVLGEAPDVLSMLGADKLGRLWRLQERLMAPQSSGGPCPPPTFPGCQGFFRDFILSASSEQFNQHLMDSLSLKIQELNGLALPQHEPNDEDGESDVDWQGERKQFAVVLLSLRLLAKFLGFVAFLPYRGPAPPPTGELQDSILALRSQVPPVLDVRTLLQRGLQARRAVLTVPWLVEFLSFADHVVPLLEYYRDIFTLLLRLHRSLVLSQESEGKMCFLNKLLLLAVLGWLFQIPTVPEDLFFLEEGPSYAFEVDTVAPEHGLDNAPVVDQQLLYTCCPYIGELRKLLASWVSGSSGRSGGFMRKITPTTTTSLGAQPSQTSQGLQAQLAQAFFHNQPPSLRRTVEFVAERIGSNCVKHIKATLVADLVRQAESLLQEQLVTQGEEGGDPAQLLEILCSQLCPHGAQALALGREFCQRKSPGAVRALLPEETPAAVLSSAENIAVGLATEKACAWLSANITALIRREVKAAVSRTLRAQGPEPAARGERRGCSRACEHHAPLPSHLISEIKDVLSLAVGPRDPDEGVSPEHLEQLLGQLGQTLRCRQFLCPPAEQHLAKCSVELASLLVADQIPILGPPAQYRLERGQARRLLHMLLSLWKEDFQGPVPLQLLLSPRNVGLLADTRPREWDLLLFLLRELVEKGLMGRMEIEACLGSLHQAQWPGDFAEELATLSNLFLAEPHLPEPQLRACELVQPNRGTVLAQS | 2 | 
CODANIN-1 F868I/E871R (C-terminal coiled-coil mutant) (natural protein) MAAVLESLLREEVSVAAVVRWIARSTQGSEDNAGEAAALSSLRALRKEFVPFLLNFLREQSSRVLPQGPPTPAKTPGASAALPGRPGGPPRGSRGARSQLFPPTEAQSTAAEAPLARRGGRRRGPGPARERGGRGLEEGVSGESLPGAGGRRLRGSGSPSRPSLTLSDPPNLSNLEEFPPVGSVPPGPTGTKPSRRINPTPVSEERSLSKPKTCFTSPPISCVPSSQPSALDTSPWGLGLPPGCRSLQEEREMLRKERSKQLQQSPTPTCPTPELGSPLPSRTGSLTDEPADPARVSSRQRLELVALVYSSCIAENLVPNLFLELFFVFQLLTARRMVTAKDSDPELSPAVLDSLESPLFQSIHDCVFFAVQVLECHFQVLSNLDKGTLKLLAENERLLCFSPALQGRLRAAYEGSVAKVSLVMPPSTQAVSFQPETDNRANFSSDRAFHTFKKQRDVFYEVLREWEDHHEEPGWDFEKGLGSRIRAMMGQLSAACSHSHFVRLFQKQLLQMCQSPGGAGGTVLGEAPDVLSMLGADKLGRLWRLQERLMAPQSSGGPCPPPTFPGCQGFFRDFILSASSFQFNQHLMDSLSLKIQELNGLALPQHEPNDEDGESDVDWQGERKQFAVVLLSLRLLAKFLGFVAFLPYRGPEPPPTGELQDSILALRSQVPPVLDVRTLLQRGLQARRAVLTVPWLVEFLSFADHVVPLLEYYRDIFTLLLRLHRSLVLSQESEGKMCFLNKLLLLAVLGWLFQIPTVPEDLFFLEEGPSYAFEVDTVAPEHGLDNAPVVDQQLLYTCCPYIGELRKLLASWVSGSSGRSGGFMRKITPTTTTSLGAQPSQTSQGLQAQLAQAFFHNQPPSLRRTVEIVARRIGSNCVKHIKATLVADLVRQAESLLQEQLVTQGEEGGDPAQLLEILCSQLCPHGAQALALGREFCQRKSPGAVRALLPEETPAAVLSSAENIAVGLATEKACAWLSANITALIRREVKAAVSRTLRAQGPEPAARGERRGCSRACEHHAPLPSHLISEIKDVLSLAVGPRDPDEGVSPEHLEQLLGQLGQTLRCRQFLCPPAEQHLAKCSVELASLLVADQIPILGPPAQYRLERGQARRLLHMLLSLWKEDFQGPVPLQLLLSPRNVGLLADTRPREWDLLLFLLRELVEKGLMGRMEIEACLGSLHQAQWPGDFAEELATLSNLFLAEPHLPEPQLRACELVQPNRGTVLAQS |  | binds
CODANIN-1 P672L (CDA-I disease mutation) (natural protein) MAAVLESLLREEVSVAAVVRWIARSTQGSEDNAGEAAALSSLRALRKEFVPFLLNFLREQSSRVLPQGPPTPAKTPGASAALPGRPGGPPRGSRGARSQLFPPTEAQSTAAEAPLARRGGRRRGPGPARERGGRGLEEGVSGESLPGAGGRRLRGSGSPSRPSLTLSDPPNLSNLEEFPPVGSVPPGPTGTKPSRRINPTPVSEERSLSKPKTCFTSPPISCVPSSQPSALDTSPWGLGLPPGCRSLQEEREMLRKERSKQLQQSPTPTCPTPELGSPLPSRTGSLTDEPADPARVSSRQRLELVALVYSSCIAENLVPNLFLELFFVFQLLTARRMVTAKDSDPELSPAVLDSLESPLFQSIHDCVFFAVQVLECHFQVLSNLDKGTLKLLAENERLLCFSPALQGRLRAAYEGSVAKVSLVMPPSTQAVSFQPETDNRANFSSDRAFHTFKKQRDVFYEVLREWEDHHEEPGWDFEKGLGSRIRAMMGQLSAACSHSHFVRLFQKQLLQMCQSPGGAGGTVLGEAPDVLSMLGADKLGRLWRLQERLMAPQSSGGPCPPPTFPGCQGFFRDFILSASSFQFNQHLMDSLSLKIQELNGLALPQHEPNDEDGESDVDWQGERKQFAVVLLSLRLLAKFLGFVAFLPYRGPEPPPTGELQDSILALRSQVPLVLDVRTLLQRGLQARRAVLTVPWLVEFLSFADHVVPLLEYYRDIFTLLLRLHRSLVLSQESEGKMCFLNKLLLLAVLGWLFQIPTVPEDLFFLEEGPSYAFEVDTVAPEHGLDNAPVVDQQLLYTCCPYIGELRKLLASWVSGSSGRSGGFMRKITPTTTTSLGAQPSQTSQGLQAQLAQAFFHNQPPSLRRTVEFVAERIGSNCVKHIKATLVADLVRQAESLLQEQLVTQGEEGGDPAQLLEILCSQLCPHGAQALALGREFCQRKSPGAVRALLPEETPAAVLSSAENIAVGLATEKACAWLSANITALIRREVKAAVSRTLRAQGPEPAARGERRGCSRACEHHAPLPSHLISEIKDVLSLAVGPRDPDEGVSPEHLEQLLGQLGQTLRCRQFLCPPAEQHLAKCSVELASLLVADQIPILGPPAQYRLERGQARRLLHMLLSLWKEDFQGPVPLQLLLSPRNVGLLADTRPREWDLLLFLLRELVEKGLMGRMEIEACLGSLHQAQWPGDFAEELATLSNLFLAEPHLPEPQLRACELVQPNRGTVLAQS | 2 | 
